# Measured values as given in the RNAGym collection of RNA variant scans (doi:10.7554/elife.80360).
# B1: HDV Ribozyme (parent)
# chain: GGCCGGCAUGGUCCCAGCCUCCUCGCUGGCGCCGGCUGGGCAACAUUCCGAGGGGACCGUCCCCUCGGUAAUGGCGAAUGGGACCCA
# Variants of: B1
# Assay: self-cleavage, relative activity (ratio to wild type); higher = more cleavage; co-transcriptional
row,Variant,self-cleavage
1,GGGCGGCAUGGUCCCAGCCUCCUCGCUGGCGUCGGCUGGGCAACAUUCCGAGGGGACCGUCCCCUCGGUAAUGGCGAAUGGGACCCA [C3G C32U],0.198
2,GGCCGGCAUGGUCCCAGCCUCCUCGCUGGUGCCGGCUGGGCAACAUUCCGAGAGGACCGUCCCCUCGGUAAUGGCGAAUGGGACCCA [C30U G53A],0.547
3,GGCCGGCAUGGUCCCACCCUCCUCGCUGGCGCCGGCUGGGCAACAUUCCGAGGCGACCGUCCCCUCGGUAAUGGCGAAUGGGACCCA [G17C G54C],0.447
4,GGCCGGCAUGGUCCCAGCCUCCUCGCUGGCGCCGGCUCGGCAACAUUCCGAGGGGACCGUCCCCUCGGUAAAGGCGAAUGGGACCCA [G38C U72A],0.158
5,GACCGGCAUGGUCCCAGCCUCCUCCCUGGCGCCGGCUGGGCAACAUUCCGAGGGGACCGUCCCCUCGGUAAUGGCGAAUGGGACCCA [G2A G25C],0.0744
6,GGCCGGUAUGGUCCCAGCCUUCUCGCUGGCGCCGGCUGGGCAACAUUCCGAGGGGACCGUCCCCUCGGUAAUGGCGAAUGGGACCCA [C7U C21U],0.0652
7,GGCCGGCAUAGUCCCAGCCUCCUCGCUGGCGCCGGCUGGGCAACAUUCCGAGGGGACCGUCCCCUCGGUAAUGGCGAAUGGGACCGA [G10A C86G],0.639
8,GGCCGGCAUGGUCCCAGCCUCCUCGAUGGCGCAGGCUGGGCAACAUUCCGAGGGGACCGUCCCCUCGGUAAUGGCGAAUGGGACCCA [C26A C33A],0.161
9,GGCCGGCAUGGUCCCAGCCUCCUUGCUGGCGCCGGCUGGGCAACAUUCCGAGGGGACCGUCCCCUCGGUAAUGGGGAAUGGGACCCA [C24U C75G],0.119
10,GGCCGGCAUGGUCCCACCCUCCUCACUGGCGCCGGCUGGGCAACAUUCCGAGGGGACCGUCCCCUCGGUAAUGGCGAAUGGGACCCA [G17C G25A],0.131
11,GGCCGGCAUGGUCCCAUCUUCCUCGCUGGCGCCGGCUGGGCAACAUUCCGAGGGGACCGUCCCCUCGGUAAUGGCGAAUGGGACCCA [G17U C19U],0.199
12,GGCCGGCAUGGUCCCAGCCUCCUCGCUGGCGCCGGCUGGGCAACAUUCCGAGGGGACCGUCCCCUCGGUAAUGGCGAAUGGGCCGCA [A83C C85G],0.175
13,GGCCGGCAUGGUCCCAGCCUCCUCGCUAGCGCCGGCCGGGCAACAUUCCGAGGGGACCGUCCCCUCGGUAAUGGCGAAUGGGACCCA [G28A U37C],0.151
14,GGCCGGCAUGGUCCCAGCCUCCUCGAUGGCGCCGGCUGGGCAACAUUCCGAGGGGACCGUCCCCUCGGUAAUGGCGAAUGCGACCCA [C26A G81C],0.193
15,GGCCGGCAGGGUUCCAGCCUCCUCGCUGGCGCCGGCUGGGCAACAUUCCGAGGGGACCGUCCCCUCGGUAAUGGCGAAUGGGACCCA [U9G C13U],1.07
16,GGCCGGCAUGGUCCCAGCCUCCUCGCUGCCGCCGGCUGGGCAACCUUCCGAGGGGACCGUCCCCUCGGUAAUGGCGAAUGGGACCCA [G29C A45C],0.111
17,GGCCGGCAUGAUCCCAGCCUCCUCGCUGGCGCCGGCUGGGCAACAUUCCGAGGGGACCGUCCCCUCGGUAUUGGCGAAUGGGACCCA [G11A A71U],0.229
18,GGCCGGCAUGGUCCCAGCCUUCUCGCUGGCGCCGGCUGGGCAACAUUCCGAGGGGACCGUCCCCUCGGUAAUGGCGAAUGGGAACCA [C21U C84A],0.0755
19,GGCCGGCAUGGUCCCAGGCUCCUCGCUGGCGCCGGCUGGGCAACAUUCCGAGGGGACCGUCCCCUCGGUGAUGGCGAAUGGGACCCA [C18G A70G],0.161
20,GGCCGGCUUGGUCCCAGCCUCCUCGCUGGCGCCGGCUGGGCAACAUACCGAGGGGACCGUCCCCUCGGUAAUGGCGAAUGGGACCCA [A8U U47A],0.767
21,GGCCGGCAGGGUCCCAGCCUCCUCGCUGGCGCCGGCUGGGCAACAUCCCGAGGGGACCGUCCCCUCGGUAAUGGCGAAUGGGACCCA [U9G U47C],1.04
22,GGCCGGCAUGGUCCCAGCCUCCUCGCUGGCGCCGGCUGGGCAACAUUCCGAGGGGACCAUCCCCUCGGUAAUGGCGAAUGGGGCCCA [G59A A83G],0.748

row,Variant,self-cleavage
1,GGCCGGCAUGGUCCCAGCCUCCUCGCUGGCGCCGGCUGGGCAACAUUCCGAGGGGACCGUCCCCUUGGUAAUGCCGAAUGGGACCCA [C66U G74C],0.363
2,GGCCGGCAUGGUCCCAGCCUCCUCGCUGGCGCCGGCUGGGCAACAUUCCGAGGGGACCGUCCCUUCGCUAAUGGCGAAUGGGACCCA [C64U G68C],0.305
3,GGCCGGCAUGGUCCCAGCCUCCUCGCUGGCGCCGGCUGGGCAACAUUCCGAGGUGACCGUCCCCUCGGUAAGGGCGAAUGGGACCCA [G54U U72G],0.919
4,GGCCGGCAUGUUCCCAGCCUCCUCGCUGGCGCCGGCUGGGCAACAUUCCGAGGGGACCGUCCCCUCGGUAAUGGCGAAGGGGACCCA [G11U U79G],0.231
5,GGCCGGCAUGGUCCCAGCCUCCUCGCUGGCGCCGGCUGGGCCACAUUCCGAGGGGACCGUCUCCUCGGUAAUGGCGAAUGGGACCCA [A42C C62U],0.157
6,GGCCGGCAUGGUUCCAGCCUCCUCGCUGGCGCCGGCUGGGCAACAUUCCGAGGGGACCGUCCCCUCGGUAAUAGCGAAUGGGACCCA [C13U G73A],0.128
7,GGCCGGCAUAGUCCCAGCCUCCUCGCUGGCGCCGGCUGGGCAACAUUCCGAGGGGACCGUCCCCUCGGUUAUGGCGAAUGGGACCCA [G10A A70U],0.533
8,GGCCGGCAUGGUCCCAGCCUCCUCGCUGGCGCCGGCUGGGCAACAUUCCGAGGGGACCGUCCCCUCGGCAAUGGCGAAUUGGACCCA [U69C G80U],0.0898
9,GGCCGGCAUGGUCCCCGCCUCCUCGCUGGCGCCGGCUGGGCAACCUUCCGAGGGGACCGUCCCCUCGGUAAUGGCGAAUGGGACCCA [A16C A45C],0.35
10,GGCCGGCAUGUUCCCAGCCUCCUCACUGGCGCCGGCUGGGCAACAUUCCGAGGGGACCGUCCCCUCGGUAAUGGCGAAUGGGACCCA [G11U G25A],0
11,GGCCGGCAUGGUCCCAGCCUCCUCGCUGGCGCCGGCUCGGCAACAUUCCGAGGGGGCCGUCCCCUCGGUAAUGGCGAAUGGGACCCA [G38C A56G],0.197
12,GGCCGGCAUGGUCUCAGCCUCCUCGCUGGCGCCGGCUGGGCAACAUUCCGAGGGGACCGUCCGCUCGGUAAUGGCGAAUGGGACCCA [C14U C63G],0.831
13,GGCCGGCAUGGUCCAAGCCUCCUCGCUGGCGCCGGCUGGGCAACAUUCCGAGGGGACCGUCCCCUCGGUAAUGGCGAUUGGGACCCA [C15A A78U],0.0639
14,GGCCGGCAUGGUCCCAGCCUCCUCGCUGGCGCCAGCUGGCCAACAUUCCGAGGGGACCGUCCCCUCGGUAAUGGCGAAUGGGACCCA [G34A G40C],0.0482
15,GGUCGGCAGGGUCCCAGCCUCCUCGCUGGCGCCGGCUGGGCAACAUUCCGAGGGGACCGUCCCCUCGGUAAUGGCGAAUGGGACCCA [C3U U9G],0.942
16,GGCCGGCAUGGUCCCAGCCUCCGCGCUGGCGCCGGCUGGGCAACAUCCCGAGGGGACCGUCCCCUCGGUAAUGGCGAAUGGGACCCA [U23G U47C],0.332
17,GGCCGGCAUGGUCCCAGCCUCCUCGCUGGCGCCGGCUGGGCAACAUUCCGAGGGGACCGUCAUCUCGGUAAUGGCGAAUGGGACCCA [C62A C63U],0.831
18,AGCCGGCAUGGUCCCAGCCUCCUCGCUGGCGCCGGAUGGGCAACAUUCCGAGGGGACCGUCCCCUCGGUAAUGGCGAAUGGGACCCA [G1A C36A],0.154
19,GGCCGGCAUGGUCACAGCCUCCUCGCUGGCGCCGGCUGGGCAACAUUCCGAGGGCACCGUCCCCUCGGUAAUGGCGAAUGGGACCCA [C14A G55C],0.767
20,GGCCGGCAUGGUCCCAGCCUCCUCGCAGGCGCCGGCUGGGCAACAUUCCGAGGGGACCGUCCCCUCGGUAAUGGCGCAUGGGACCCA [U27A A77C],0
21,GGCCGGCCUGGUCCCACCCUCCUCGCUGGCGCCGGCUGGGCAACAUUCCGAGGGGACCGUCCCCUCGGUAAUGGCGAAUGGGACCCA [A8C G17C],0
22,GGCCGACAUGGUCCCAGCCUCCUCGCUGGCACCGGCUGGGCAACAUUCCGAGGGGACCGUCCCCUCGGUAAUGGCGAAUGGGACCCA [G6A G31A],0.0992

row,Variant,self-cleavage
1,GGCCGGCAUGGUUCCAGCCUCCUCGCUGGCGCCGGCUGGGCAACAUUCCGAGGGGACCGUCCCCUCGGUAAUGGCGACUGGGACCCA [C13U A78C],0.119
2,GGCCGGCAUGGUCCGAGCCUCCUCGCUGGCGCCGGAUGGGCAACAUUCCGAGGGGACCGUCCCCUCGGUAAUGGCGAAUGGGACCCA [C15G C36A],0.306
3,GGCCGGUAUGGUCCCAGCCUCCUCGCUGGCGCCGGCUGGGCAACAUUCCGAGGGGACCGUCCCCUCGGUAAUGGCGAAUCGGACCCA [C7U G80C],0.0773
4,GGCCGGCAUGGUCCCAGCCUCCUCGCUGGCGCCGGCUGGGAAACAUUCCGAGGGGACCGUCCCCUCGGUAAUGGAGAAUGGGACCCA [C41A C75A],0.208
5,GGCCGGCAUGGUCCCAGCCUCCACGCUGGCGCCGGCUGGGCAACAUUCCGAGGGGACCGUCCCCUCGCUAAUGGCGAAUGGGACCCA [U23A G68C],0.831
6,GGCCGGCACGGUCCCAGCGUCCUCGCUGGCGCCGGCUGGGCAACAUUCCGAGGGGACCGUCCCCUCGGUAAUGGCGAAUGGGACCCA [U9C C19G],0.0519
7,GGCGGGCAUGGUCCCAGCCUCCUCGCUGGCGCCGGCUGGGCAACAUUCCGAGGGGACCGUCCCCUCGGUAAUGGCGAAUUGGACCCA [C4G G80U],0.0953
8,GGCCGGCAUGGUCCCACCCUCCUCGCUGGCGCAGGCUGGGCAACAUUCCGAGGGGACCGUCCCCUCGGUAAUGGCGAAUGGGACCCA [G17C C33A],0.0437
9,GGCCGGCAUGGUCCCAGCCUCCUCGCUGGUGCCGGCUGGGCAACAUUCCGAGGGGACCGUCCCCUCGGUAAUGGCGAAUGGUACCCA [C30U G82U],0.252
10,GGCCGGCAUGGUCCCAGCCUCCUCGAUGGCGCCGGCUGGGCAACAUUCAGAGGGGACCGUCCCCUCGGUAAUGGCGAAUGGGACCCA [C26A C49A],1.11
11,GGCCGGCAUGGUCCCAGCCUCCUCGCUGGCGCCGGCUGGGCAACAUUCCGAGGGGACCUUCCCCUCGGUAAUGGCGAAUGGGACACA [G59U C85A],0.749
12,GGCCGGCAUGGUCCCAGCCUCCUCUCUGGCGCCGGCUGGGCAACAUUCCGAGGGGACCGUCCCCUCGGUAAUGGCGAAUGGGACCCG [G25U A87G],0.163
13,GGCCGGCAUGGUCCCAACCUCCUCGCUGGCGCCGGCUGGACAACAUUCCGAGGGGACCGUCCCCUCGGUAAUGGCGAAUGGGACCCA [G17A G40A],0.655
14,GGCCGGCAUGGUCCCAGCCUCCUCGCUGGCGCCGGCAGGGCAACAUUCCGAGGGGACCGUCCCCUCGGUAAUGGGGAAUGGGACCCA [U37A C75G],0.0852
15,GGCCGGCAUGGUCCCAGCCUCCUCGCUGGCGCCGGCUGGGCAACAUUCCGAGGGGACCGUCCCCUCGGUUAUGGCGAAUGGGACCAA [A70U C86A],1.02
16,GGCCGGCAUGGACCCAGCCUCCUCCCUGGCGCCGGCUGGGCAACAUUCCGAGGGGACCGUCCCCUCGGUAAUGGCGAAUGGGACCCA [U12A G25C],0.17
17,GGCCGGCAUGGUCCCAGCCUCCUCGCUGGCGGCGGCUGGGCCACAUUCCGAGGGGACCGUCCCCUCGGUAAUGGCGAAUGGGACCCA [C32G A42C],0.0678
18,GGCCGGCAUGGUCCCAGCCUCCUCGCUGGCGCCGGCUGGGCAACAUUCCGAUGGGACCGUCCCCUCGGUAAUGGCGAAUGGGACUCA [G52U C85U],0.781
19,GGCCGGCAUGGACCCAGUCUCCUCGCUGGCGCCGGCUGGGCAACAUUCCGAGGGGACCGUCCCCUCGGUAAUGGCGAAUGGGACCCA [U12A C18U],0.217
20,GGCCGGCAUGGUCCCAGCCUCCUCGCUGGCGCCGGCUGGGCGACAUUCAGAGGGGACCGUCCCCUCGGUAAUGGCGAAUGGGACCCA [A42G C49A],0.302
